Like-named read-outs stand apart in the source and are kept apart here.
Tests used:
[1] = molecular target: HIV-1 Env of 20 pseudotyped viruses representing 10 different HIV-1 clades; assay: cell-based or functional assay
[2] = molecular target: HIV-1 Env of 20 pseudotyped viruses representing 10 different HIV-1 clades; assay: cell-based or functional assay; remark: listed apart in the source

Binder	% VS Neutralized: IC80 < 1 µg/mL (of 20 viruses) [1] [%]	% VS Neutralized: IC80 < 50 µg/mL (of 20 viruses) [1] [%]	Geometric Mean (IC80) [1] [µg/mL]	Total VS Neutralized: IC80 < 1 µg/mL (of 20 viruses) [1] [viruses]	Total VS Neutralized: IC80 < 50 µg/mL (of 20 viruses) [1] [viruses]	Median IC80 [1] [µg/mL]	% VS Neutralized: IC80 < 1 µg/mL (of 20 viruses) [2] [%]	% VS Neutralized: IC80 < 50 µg/mL (of 20 viruses) [2] [%]	Geometric Mean (IC80) [2] [µg/mL]	Total VS Neutralized: IC80 < 1 µg/mL (of 20 viruses) [2] [viruses]	Total VS Neutralized: IC80 < 50 µg/mL (of 20 viruses) [2] [viruses]
V1/V2 directed Ab “a” (antibody, V domains shown) VH: QVHLTQSGPEVRKPGTSVKVSCKAPGNTLKTYDLHWVRSVPGQGLQWMGWISHEGDKKVIVERFKAKVTIDWDRSTNTAYLQLSGLTSGDTAVYYCAKGSKHRLRDYALYDDDGALNWAVDVDYLSNLEFWGQGTAVTVSS VL: DFVLTQSPHSLSVTPGESASISCKSSHSLIHGDRNNYLAWYVQKPGRSPQLLIYLASSRASGVPDRFSGSGSDKDFTLKISRVETEDVGTYYCMQGRESPWTFGQGTKVDIK	45	55	0.094	9	11						
Binding Protein 2 (protein) light 1: DFVLTQSPHSLSVTPGESASISCKSSHSLIHGDRNNYLAWYVQKPGRSPQLLIYLASSRASGVPDRFSGSGSDKDFTLKISRVETEDVGTYYCMQGRESPWTFGQGTKVDIKDKTHTASELTQDPAVSVALKQTVTITCRGDSLRSHYASWYQKKPGQAPVLLFYGKNNRPSGIPDRFSGSASGNRASLTITGAQAEDEADYYCSSRDKSGSRLSVFGGGTKLTVLDKTHTRTVAAPSVFIFPPSDEQLKSGTASVVCLLNNFYPREAKVQWKVDNALQSGNSQESVTEQDSKDSTYSLSSTLTLSKADYEKHKVYACEVTHQGLSSPVTKSFNRGEC heavy 1: EVRLVESGGGLVKPGGSLRLSCSASGFDFDNAWMTWVRQPPGKGLEWVGRITGPGEGWSVDYAESVKGRFTISRDNTKNTLYLEMNNVRTEDTGYYFCARTGKYYDFWSGYPPGEEYFQDWGQGTLVIVSSDKTHTQVHLTQSGPEVRKPGTSVKVSCKAPGNTLKTYDLHWVRSVPGQGLQWMGWISHEGDKKVIVERFKAKVTIDWDRSTNTAYLQLSGLTSGDTAVYYCAKGSKHRLRDYALYDDDGALNWAVDVDYLSNLEFWGQGTAVTVSSDKTHTASTKGPSVFPLAPSSKSTSGGTAALGCLVKDYFPEPVTVSWNSGALTSGVHTFPAVLQSSGLYSLSSVVTVPSSSLGTQTYICNVNHKPSNTKVDKKVEPKSCDKTHTCPPCPAPELLGGPSVFLFPPKPKDTLMISRTPEVTCVVVDVSHEDPEVKFNWYVDGVEVHNAKTKPREEQYNSTYRVVSVLTVLHQDWLNGKEYKCKVSNKALPAPIEKTISKAKGQPREPQVYTLPPCRDELTKNQVSLWCLVKGFYPSDIAVEWESNGQPENNYKTTPPVLDSDGSFFLYSKLTVDKSRWQQGNVFSCSVLHEALHSHYTQKSLSLSPG heavy 2: RAHLVQSGTAMKKPGASVRVSCQTSGYTFTAHILFWFRQAPGRGLEWVGWIKPQYGAVNFGGGFRDRVTLTRDVYREIAYMDIRGLKPDDTAVYYCARDRSYGDSSWALDAWGQGTTVVVSAASTKGPSVFPLAPSSKSTSGGTAALGCLVKDYFPEPVTVSWNSGALTSGVHTFPAVLQSSGLYSLSSVVTVPSSSLGTQTYICNVNHKPSNTKVDKKVEPKSCDKTHTCPPCPAPELLGGPSVFLFPPKPKDTLMISRTPEVTCVVVDVSHEDPEVKFNWYVDGVEVHNAKTKPREEQYNSTYRVVSVLTVLHQDWLNGKEYKCKVSNKALPAPIEKTISKAKGQPREPQVCTLPPSRDELTKNQVSLSCAVKGFYPSDIAVEWESNGQPENNYKTTPPVLDSDGSFFLVSKLTVDKSRWQQGNVFSCSVLHEALHSHYTQKSLSLSPG light 2: YIHVTQSPSSLSVSIGDRVTINCQTSQGVGSDLHWYQHKPGRAPKLLIHHTSSVEDGVPSRFSGSGFHTSFNLTISDLQADDIATYYCQVLQFFGRGSRLHIKRTVAAPSVFIFPPSDEQLKSGTASVVCLLNNFYPREAKVQWKVDNALQSGNSQESVTEQDSKDSTYSLSSTLTLSKADYEKHKVYACEVTHQGLSSPVTKSFNRGEC	65	90	0.222	13	18	0.375					
Binding Protein 3 (protein) light 1: ASELTQDPAVSVALKQTVTITCRGDSLRSHYASWYQKKPGQAPVLLFYGKNNRPSGIPDRFSGSASGNRASLTITGAQAEDEADYYCSSRDKSGSRLSVFGGGTKLTVLDKTHTDFVLTQSPHSLSVTPGESASISCKSSHSLIHGDRNNYLAWYVQKPGRSPQLLIYLASSRASGVPDRFSGSGSDKDFTLKISRVETEDVGTYYCMQGRESPWTFGQGTKVDIKDKTHTRTVAAPSVFIFPPSDEQLKSGTASVVCLLNNFYPREAKVQWKVDNALQSGNSQESVTEQDSKDSTYSLSSTLTLSKADYEKHKVYACEVTHQGLSSPVTKSFNRGEC heavy 1: QVHLTQSGPEVRKPGTSVKVSCKAPGNTLKTYDLHWVRSVPGQGLQWMGWISHEGDKKVIVERFKAKVTIDWDRSTNTAYLQLSGLTSGDTAVYYCAKGSKHRLRDYALYDDDGALNWAVDVDYLSNLEFWGQGTAVTVSSDKTHTEVRLVESGGGLVKPGGSLRLSCSASGFDFDNAWMTWVRQPPGKGLEWVGRITGPGEGWSVDYAESVKGRFTISRDNTKNTLYLEMNNVRTEDTGYYFCARTGKYYDFWSGYPPGEEYFQDWGQGTLVIVSSDKTHTASTKGPSVFPLAPSSKSTSGGTAALGCLVKDYFPEPVTVSWNSGALTSGVHTFPAVLQSSGLYSLSSVVTVPSSSLGTQTYICNVNHKPSNTKVDKKVEPKSCDKTHTCPPCPAPELLGGPSVFLFPPKPKDTLMISRTPEVTCVVVDVSHEDPEVKFNWYVDGVEVHNAKTKPREEQYNSTYRVVSVLTVLHQDWLNGKEYKCKVSNKALPAPIEKTISKAKGQPREPQVYTLPPCRDELTKNQVSLWCLVKGFYPSDIAVEWESNGQPENNYKTTPPVLDSDGSFFLYSKLTVDKSRWQQGNVFSCSVLHEALHSHYTQKSLSLSPG heavy 2: RAHLVQSGTAMKKPGASVRVSCQTSGYTFTAHILFWFRQAPGRGLEWVGWIKPQYGAVNFGGGFRDRVTLTRDVYREIAYMDIRGLKPDDTAVYYCARDRSYGDSSWALDAWGQGTTVVVSAASTKGPSVFPLAPSSKSTSGGTAALGCLVKDYFPEPVTVSWNSGALTSGVHTFPAVLQSSGLYSLSSVVTVPSSSLGTQTYICNVNHKPSNTKVDKKVEPKSCDKTHTCPPCPAPELLGGPSVFLFPPKPKDTLMISRTPEVTCVVVDVSHEDPEVKFNWYVDGVEVHNAKTKPREEQYNSTYRVVSVLTVLHQDWLNGKEYKCKVSNKALPAPIEKTISKAKGQPREPQVCTLPPSRDELTKNQVSLSCAVKGFYPSDIAVEWESNGQPENNYKTTPPVLDSDGSFFLVSKLTVDKSRWQQGNVFSCSVLHEALHSHYTQKSLSLSPG light 2: YIHVTQSPSSLSVSIGDRVTINCQTSQGVGSDLHWYQHKPGRAPKLLIHHTSSVEDGVPSRFSGSGFHTSFNLTISDLQADDIATYYCQVLQFFGRGSRLHIKRTVAAPSVFIFPPSDEQLKSGTASVVCLLNNFYPREAKVQWKVDNALQSGNSQESVTEQDSKDSTYSLSSTLTLSKADYEKHKVYACEVTHQGLSSPVTKSFNRGEC	60	90	0.287	12	18	0.469					
V1/V2 directed Ab “b” (antibody, V domains shown) VH: QVQLVESGGGVVQPGTSLRLSCAASQFRFDGYGMHWVRQAPGKGLEWVASISHDGIKKYHAEKVWGRFTISRDNSKNTLYLQMNSLRPEDTALYYCAKDLREDECEEWWSDYYDFGKQLPCAKSRGGLVGIADNWGQGTMVTVSS VL: QSVLTQPPSVSAAPGQKVTISCSGNTSNIGNNFVSWYQQRPGRAPQLLIYETDKRPSGIPDRFSASKSGTSGTLAITGLQTGDEADYYCATWAASLSSARVFGTGTKVIVL							45	45	0.039	9	9

— patent US20250312475A1
